Measured values reported in PMC2685113.

Biological target: streptavidin (UniProt P22629 25-183)
Assay: EMSA

Chain of streptavidin (P22629 25-183): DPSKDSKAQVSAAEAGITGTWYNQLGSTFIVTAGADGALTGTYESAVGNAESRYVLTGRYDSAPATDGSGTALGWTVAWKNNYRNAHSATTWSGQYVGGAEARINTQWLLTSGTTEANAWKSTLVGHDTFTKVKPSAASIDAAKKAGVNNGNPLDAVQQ

B1: S1-77 (structured_RNA)
RNA: GGGCCAUCGAUGCGGCCGCCGACCAGAAUCAUGCAAGUGCGUAAGAUAGUCGCGGGUCGGCGGCCGCAUCGAUGGCC
B1: binds.
